# Laboratory results as given in patent US20230134571A1 (INTERNATIONAL AIDS VACCINE INITIATIVE, published 2023).
# What was measured:
# Assay in all cases: cell-based or functional assay
# [1] = target: HIV Env of isolate 246FC1G (clade C) (HIV)
# [2] = target: HIV Env of isolate X2088_C9 (clade G) (HIV)
# [3] = target: HIV Env of isolate 3817.v2.c59 (clade CD) (HIV)
# [4] = target: HIV Env of isolate CNE19 (clade BC) (HIV)
# [5] = target: HIV Env of isolate CAP45.2.00.G3 (clade C) (HIV)
# [6] = target: HIV Env of isolate 3016.v5.c45 (clade D) (HIV)
# [7] = target: HIV Env of isolate 1056_10_TA11_1826 (clade B) (HIV)
# [8] = target: HIV Env of isolate ZM214M.PL15 (clade C) (HIV)
# [9] = target: HIV Env of isolate 6240_08_TA5_4622 (clade B) (HIV)
# [10] = target: HIV Env of isolate ZM53M.PB12 (clade C) (HIV)
# [11] = target: HIV Env of isolate T257-31 (clade AG) (HIV)
# [12] = target: HIV Env of isolate ZM197M.PB7 (clade C) (HIV)
# [13] = target: HIV Env of isolate HIV-16055-2.3 (clade C) (HIV)
# [14] = target: HIV Env of isolate QH0692.42 (clade B) (HIV)
# [15] = target: HIV Env of isolate Q769.d22 (clade A) (HIV)
# [16] = target: HIV Env of isolate REJO4541.67 (clade B) (HIV)
# [17] = target: HIV Env of isolate PVO.4 (clade B) (HIV)
# [18] = target: HIV Env of isolate Q842.d12 (clade A) (HIV)
# [19] = target: HIV Env of isolate C4118.c09 (clade AE) (HIV)
# [20] = target: HIV Env of isolate 928-28 (clade AG) (HIV)
# [21] = target: HIV Env of isolate CNE53 (clade BC) (HIV)
# [22] = target: HIV Env of isolate 6535.3 (clade B) (HIV)
# [23] = target: HIV Env of isolate Ce2060_G9 (clade C) (HIV)
# [24] = target: HIV Env of isolate Q23.17 (clade A) (HIV)
Binder,IC50 (µg/ml) with constrains [1],IC50 (µg/ml) with constrains [2],IC50 (µg/ml) with constrains [3],IC50 (µg/ml) with constrains [4],IC50 (µg/ml) with constrains [5],IC50 (µg/ml) with constrains [6],IC50 (µg/ml) with constrains [7],IC50 (µg/ml) with constrains [8],IC50 (µg/ml) with constrains [9],IC50 (µg/ml) with constrains [10],IC50 (µg/ml) with constrains [11],IC80 (µg/ml) with constrains [11],IC50 (µg/ml) with constrains [12],IC50 (µg/ml) with constrains [13],IC50 (µg/ml) with constrains [14],IC50 (µg/ml) with constrains [15],IC80 (µg/ml) with constrains [15],IC50 (µg/ml) with constrains [16],IC50 (µg/ml) with constrains [17],IC50 (µg/ml) with constrains [18],further results
"ePGDM13 (antibody, V domains shown) VH: QAQLVQSGPEVRKPGTSVKVSCKNPGNTLTTYDLHWVRQVPGQGLQWMGWISHEGDKKVIVERFKAKVTIDWDRSTNTAYLQLSGLTSEDTAVYYCAKGSKHRLRDYALYDEDGALNWAVDVDYLANLEFWGQGTAVTVSS VL: DIVLTQSPLSLSVTPGESASISCKSSHSLQHGDRNNYLAWYVQKPGRSPQLLLDLASERASGVPDRFSGSGSEKDFTLKISRVETEDVGTYYCMQGRESPWTFGQGTKVDIK",> 100 µg/mL,64.1 µg/mL,14 µg/mL,0.003 µg/mL,0.002 µg/mL,> 100 µg/mL,1.51 µg/mL,> 100 µg/mL,3.16 µg/mL,0.005 µg/mL,0.02 µg/mL,0.078 µg/mL,0.06 µg/mL,0.003 µg/mL,> 100 µg/mL,0.002 µg/mL,0.01 µg/mL,0.002 µg/mL,2.95 µg/mL,> 100 µg/mL,IC80 (µg/ml) with constrains [18]: > 100 µg/mL; IC50 (µg/ml) with constrains [19]: 0.001 µg/mL; IC80 (µg/ml) with constrains [19]: 0.005 µg/mL; IC50 (µg/ml) with constrains [20]: 0.019 µg/mL; IC80 (µg/ml) with constrains [20]: 0.077 µg/mL; IC50 (µg/ml) with constrains [21]: 0.015 µg/mL; IC50 (µg/ml) with constrains [22]: > 100 µg/mL; IC50 (µg/ml) with constrains [23]: 0.018 µg/mL; IC50 (µg/ml) with constrains [24]: 0.001 µg/mL; IC80 (µg/ml) with constrains [24]: 0.004 µg/mL
"PGDM1400 (antibody, V domains shown) VH: QVHLTQSGPEVRKPGTSVKVSCKAPGNTLKTYDLHWVRSVPGQGLQWMGWISHEGDKKVIVERFKAKVTIDWDRSTNTAYLQLSGLTSGDTAVYYCAKGSKHRLRDYALYDDDGALNWAVDVDYLSNLEFWGQGTAVTVSS VL: DFVLTQSPHSLSVTPGESASISCKSSHSLIHGDRNNYLAWYVQKPGRSPQLLIYLASSRASGVPDRFSGSGSDKDFTLKISRVETEDVGTYYCMQGRESPWTFGQGTKVDIK",> 100 µg/mL,> 100 µg/mL,> 100 µg/mL,0.005 µg/mL,0.001 µg/mL,> 100 µg/mL,3.38 µg/mL,> 100 µg/mL,52.4 µg/mL,0.009 µg/mL,0.138 µg/mL,0.552 µg/mL,0.071 µg/mL,0.003 µg/mL,> 100 µg/mL,0.007 µg/mL,0.028 µg/mL,0.004 µg/mL,3.41 µg/mL,> 100 µg/mL,IC80 (µg/ml) with constrains [18]: > 100 µg/mL; IC50 (µg/ml) with constrains [19]: 0.002 µg/mL; IC80 (µg/ml) with constrains [19]: 0.006 µg/mL; IC50 (µg/ml) with constrains [20]: 0.069 µg/mL; IC80 (µg/ml) with constrains [20]: 0.277 µg/mL; IC50 (µg/ml) with constrains [21]: 0.026 µg/mL; IC50 (µg/ml) with constrains [22]: > 100 µg/mL; IC50 (µg/ml) with constrains [23]: 0.025 µg/mL; IC50 (µg/ml) with constrains [24]: 0.001 µg/mL; IC80 (µg/ml) with constrains [24]: 0.005 µg/mL
"ePGDM5 (antibody, V domains shown) VH: QAQLVQSGPEVRKPGTSVKVSCKNPGNTLTTYDLHWVRQVPGQGLQWMGWISHEGDKKVIVERFKAKVTIDWDRSTNTAYLQLSGLTSEDTAVYYCAKGSKHRLRDYALYDEDGALNWAVDVDYLANLEFWGQGTAVTVSS VL: DFVLTQSPLSLSVTPGESASISCKSDHSLQHGDRNNYLAWYVQKPGRSPQLLIDLASERASGVPDRFSGSGSRKDFTLKIDRVEAEDVGTYYCMQGRESPWTFGQGTKVDIK",> 100 µg/mL,28.6 µg/mL,0.232 µg/mL,0.003 µg/mL,0.001 µg/mL,> 100 µg/mL,0.893 µg/mL,> 100 µg/mL,2.02 µg/mL,0.005 µg/mL,0.016 µg/mL,0.064 µg/mL,0.035 µg/mL,0.002 µg/mL,> 100 µg/mL,0.003 µg/mL,0.011 µg/mL,0.001 µg/mL,1.39 µg/mL,> 100 µg/mL,IC80 (µg/ml) with constrains [18]: > 100 µg/mL; IC80 (µg/ml) with constrains [19]: 0.002 µg/mL; IC50 (µg/ml) with constrains [20]: 0.031 µg/mL; IC80 (µg/ml) with constrains [20]: 0.125 µg/mL; IC50 (µg/ml) with constrains [21]: 0.02 µg/mL; IC50 (µg/ml) with constrains [22]: 98.2 µg/mL; IC50 (µg/ml) with constrains [23]: 0.011 µg/mL; IC50 (µg/ml) with constrains [24]: 0.001 µg/mL; IC80 (µg/ml) with constrains [24]: 0.004 µg/mL
"ePGDM9 (antibody, V domains shown) VH: QAQLVQSGPEVRKPGTSVKVSCKNPGNTLTTYDLHWVRQVPGQGLQWMGWISHEGDKKVIVERFKAKVTIDWDRSTNTAYLQLSGLTSEDTAVYYCAKGSKHRLRDYALYDEDGALNWAVDVDYLANLEFWGQGTAVTVSS VL: DIVLTQSPLSLSVTPGESASISCKSSQSLIHGDRNNYLAWYVQKPGRSPQLLIDLASERASGVPDRFSGSGSRKDFTLKISRVETEDVGTYYCMQGRESPWTFGQGTKVDIK",> 100 µg/mL,> 100 µg/mL,0.16 µg/mL,0.003 µg/mL,0.001 µg/mL,> 100 µg/mL,0.903 µg/mL,> 100 µg/mL,1.65 µg/mL,0.006 µg/mL,0.019 µg/mL,0.076 µg/mL,0.023 µg/mL,0.001 µg/mL,> 100 µg/mL,0.002 µg/mL,0.009 µg/mL,0.001 µg/mL,1.93 µg/mL,> 100 µg/mL,IC80 (µg/ml) with constrains [18]: > 100 µg/mL; IC50 (µg/ml) with constrains [19]: 0.001 µg/mL; IC80 (µg/ml) with constrains [19]: 0.005 µg/mL; IC50 (µg/ml) with constrains [20]: 0.027 µg/mL; IC80 (µg/ml) with constrains [20]: 0.108 µg/mL; IC50 (µg/ml) with constrains [21]: 0.007 µg/mL; IC50 (µg/ml) with constrains [22]: 57.8 µg/mL; IC50 (µg/ml) with constrains [23]: 0.134 µg/mL; IC80 (µg/ml) with constrains [24]: 0.002 µg/mL
